Experimental data published in patent US20200384079A1, “Compositions of Fibroblast Growth Factor LIgands and Methods of Treating Patients Undergoing Ischemia-Reperfusion Therapy” (University of Cincinnati, priority 2017, published 2020).
“Also recorded” adds a separate entry of the source.

T1: FGFR3c ectodomain (Homo sapiens, UniProt P22607)
T1 sequence (P22607 23-375 limits assumed): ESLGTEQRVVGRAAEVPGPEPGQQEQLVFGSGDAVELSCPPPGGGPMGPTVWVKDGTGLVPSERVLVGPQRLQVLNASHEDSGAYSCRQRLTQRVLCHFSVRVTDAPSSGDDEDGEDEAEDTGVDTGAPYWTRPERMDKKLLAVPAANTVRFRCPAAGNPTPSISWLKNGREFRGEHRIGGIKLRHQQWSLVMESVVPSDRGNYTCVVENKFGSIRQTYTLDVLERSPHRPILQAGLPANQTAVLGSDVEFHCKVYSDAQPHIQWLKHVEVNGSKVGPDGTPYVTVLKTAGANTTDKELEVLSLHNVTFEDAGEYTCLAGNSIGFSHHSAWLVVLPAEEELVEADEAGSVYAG


Assays:
[1] = ITC of FGF interaction with Sucrose Octasulfate (SOS); type: binding
Source text: FIGS. 1A-1D: Structure-guided design of the FGF1^ΔHBS construct. (FIG. 1A) Expanded view of the hydrogen bonding interactions (dashed lines) between the HS-binding site of FGF2 and heparin hexasaccharide as observed in the crystal structure. FGF2 is shown as a ribbon diagram with HS-interacting residues rendered in sticks. The three FGF2 residues namely, K128, R129 and K134 that make important hydrogen bonding with HS are boxed. The corresponding three residues in FGF1 are K127, K128 and K133 which were mutated to aspartic acid, glutamine and valine, respectively, to engineer the FGF1ΔHBS construct; (FIG. 1B) FGF1^ΔHBS elutes as a single symmetric peak at its predicted molecular weight from a Superdex 200 sizing column. Retention times of protein standards are given above the chromatogram. (FIG. 1C and FIG. 1D) Analysis of the interactions of wildtype FGF1 and FGF1^ΔHBS with SOS. Indicated solutions of SOS were injected into solutions of wildtype FGF1 or FGF1ΔHBS in the cell. […]
To test the impact of the mutations on HS-binding ability of FGF1, isothermal titration calorimetry (ITC) was used to compare the interactions of native FGF1 and FGF1^ΔHBS with Sucrose Octasulfate (SOS), a known surrogate for HS. […] Next, the cardioprotective potential of FGF1^ΔHBS mutant when administered immediately upon reperfusion was evaluated in an in vivo rat model of myocardial infarction. […]

FGFR3c ectodomain = biological target: T1, FGFR3c ectodomain; experiment: ITC of FGF binding to FGFR3c ectodomain; conditions: for Kd: read-out: affinity for FGFR3c ectodomain

Row | Molecule | Kd [1] [nM] | Kd (FGFR3c ectodomain) [nM] | binding to SOS (in words) [1] | FGFR (receptor) binding affinity (in words) (FGFR3c ectodomain; FGFR3c ectodomain)
1 | FGF1: native recombinant human fibroblast growth factor 1 | 4000 | 704 |  | 
2 | FGF1^ΔHBS: FGF1 mutant carrying the K127D/K128Q/K133V triple mutation in its HS-binding region; reduced heparin-binding affinity (protein) MAEGEITTFTALTEKFNLPPGNYKKPKLLYCSNGGHFLRILPDGTVDGTRDRSDQHIQLQLSAESVGEVYIKSTETGQYLAMDTDGLLYGSQTPNEECLFLERLEENHYNTYISKKHAEKNWFVGLDQNGSCVRGPRTHYGQKAILFLPLPVSSD |  | 432 | negligible; also recorded: fails to bind SOS | retains normal receptor binding affinity
